The subject of data set [1] is HJ DNA. As to the kind of experiment: Stabilization of HJ DNA at RT or 55° C, non-denaturing PAGE. The format is binding. Particulars: 32P HJ DNA, 25-500 nM protein, 10 min. The protocol:
5′ end-labeled ^32P HJ DNA was incubated with increasing concentrations (25-500 nM) of IHF (FIG. 8A), rHMGB1 (FIG. 8B) or RuvA (FIG. 8C) either at room temperature (RT) or at 55° C. for 10 min, then resolved on a 6% non-denaturing PAGE. Asterisk indicates melted oligos and arrows indicate DNA-protein complex. […] This outcome contrasts with that observed with both IHF and the prototypic HJ DNA binding protein, RuvA.
To test the hypothesis, HJ DNA was incubated with either HMGB1, the DNABII protein IHF, or the prototypic HJ DNA binding protein, RuvA at room temperature (RT) or 55° C. (melting temperature of HJ DNA) and resolved the complexes by non-denaturing polyacrylamide gel electrophoresis (PAGE). […] (FIG. 8) as indicated by the decrease in abundance of the shifted HJ DNA-HMGB1 complex (arrow) and the concomitant increase in the constituent melted oligos (asterisk).
Electrophoretic mobility shift assay (EMSA): EMSA was performed as previously described (Devaraj et al., 2019).

The subject of data set [2] is eDNA lattice within K. pneumoniae biofilms. Briefly: Visualization of eDNA lattice structure within K. pneumoniae biofilms (immunofluorescence, CLSM). Type of data set: cell-based, Klebsiella pneumoniae. Particulars: 24 h K. pneumoniae biofilms, 200 nM protein, 16 h. An excerpt: Per the model as disclosed herein, HMGB1 would compete with DNABII proteins, wherein instead of stabilization, HMGB1 would de-stabilize these HJ-like structures and consequently disrupt the biofilm.

Data set [3] concerns Human neutrophils. Briefly: NET formation by neutrophils incubated with HMGB1 isoforms (CLSM). The format is cell-based. Particulars: 200 nM protein, 3.5 h. The protocol:
Neutrophils were fixed, then labeled as described above to visualize the NETs.
Visualization of NETs structure upon incubation of neutrophils with various isoforms of HMGB1: Human neutrophils were isolated from blood using the EASYSEP™ isolation kit (Stemcell Technologies Inc.). […] NETs were fixed in formalin, blocked with 10% normal goat serum (Life Technologies), and labeled with α-dsDNA monoclonal antibody (1 μg), and α-neutrophil elastase polyclonal antibody (1 μg) or naive rabbit and mouse isotype controls (1 μg) in 200 μl PBS for 16 h hours at 4° C. NETs were washed with PBS and incubated for 1 h with 1:200 dilution goat α-rabbit IgG conjugated to ALEXAFLUOR® 594, goat α-mouse IgG conjugated to ALEXAFLUOR® 488, and 1:500 dilution wheat germ agglutinin conjugated to ALEXAFLUOR® 350 (PMN membrane stain). NETs were imaged with a Zeiss LSM 800 confocal microscope (Carl Zeiss Inc.) and rendered with Zeiss Zen software.

Data set [4] is described as follows: Inflammatory cell recruitment into lungs of B. cenocepacia-challenged mice (H&E, flow cytometry of BAL). The format is in vivo, C57BL/6 mice. The conditions noted are these: B. cenocepacia-challenged mice, 0.2 nmol, 72 hpi.
The test system of data set [5] is neutrophils in BAL. The data set is described as above. The conditions noted are these: B. cenocepacia-infected and simultaneously treated, 0.2 nmol, 18 hpi. The format is in vivo, C57BL/6 mice.
In data set [6] the test system is TNF-α. As to the kind of experiment: Mouse model of endotoxemia, serum TNF-α by ELISA. Type of data set: in vivo, C57BL/6 mice. Particulars: i.p. 0.2 nmol endotoxin-free rHMGB1 or LPS 5 mg/kg; 24 h. The protocol:
Since excess HMGB1 can mediate dysregulated host response to infection associated with septic shock, the ability of rHMGB1 (0.2 nmol; the concentration used to treat in vivo biofilms) to induce septic shock was evaluated in mice. Mice were injected i.p. with either 0.2 nmol endotoxin-free rHMGB1, lipopolysaccharide (LPS; 5 mg/kg) or both, then monitored for signs of septic shock for 24 hours.
Mouse model of endotoxemia: C57BL/6 mice were injected i.p. with 5 mg/kg of E. coli lipopolysaccharide (Sigma), or 0.2 nmol rHMGB1 alone or in combination with LPS. Animals were euthanized 24 h later, serum was collected, and TNF-α was quantified by ELISA (ThermoFisher).

Data set [7] has as its system pro-inflammatory and anti-inflammatory cytokines. As to the kind of experiment: Quantitation of cytokines in middle ear fluids (cytometric bead array). The format is in vivo, chinchilla (Chinchilla lanigera). The conditions noted are these: six days after NTHI challenge, one day after completion of treatment. The protocol: Quantitation of cytokines in middle ear fluids: To quantitate cytokines in middle ear fluids (MEF), a BD™ Cytometric Bead Array was performed with fluids collected at the time of animal sacrifice. With BD™ human-specific Flex Sets, each MEF was individually examined for relative quantity of IL-1β, IL-4, IL-6, IL-8, IL-10, IL12-p70, IL-13, IL-17A, TNF or IFNγ according to manufacturer's instructions. MEFs from each animal were assayed individually. Data were captured on a BD ACCURI™ C6 cytometer (BD Biosciences) and analyzed with FlowJo software (FlowJo, LLC). The concentration of cytokines in each MEF was determined using a standard curve and calculated using GraphPad Prism software.

Data set [8] concerns B. cenocepacia. Briefly: Murine model of lung infection by B. cenocepacia, bacterial burden. The conditions noted are these: 0.2 nmol i.t. at 24 hpi; 72 hpi; α-EF-Tu labeling.
Protocol: Intratracheal challenge of the murine lung with B. cenocepacia and treatment with HMGB1 isoforms: B. cenocepacia strain K56-2, was cultured in LB broth (Difco, Md.) at 37° C. overnight at 200 rpm. Bacterial concentration was adjusted before each experiment based on OD at 600 nm. C57BL/6 mice were infected intratracheally (i.t.) with 10^7 colony forming units (CFU) of B. cenocepacia. […] Animals were euthanized 24 or 48 hpi, and bronchoalveolar lavage (BAL) was collected with 1 ml of PBS plus 1 mM EDTA. […] The slides were permeabilized with 0.5% Triton X-100 for 10 minutes, blocked with 10% normal goat serum (Abcam) for 30 minutes and stained with a monoclonal antibody against E. coli Elongation Factor-Tu (α-EF-Tu; cross reacts with B. cenocepacia) (LSBio) overnight to label B. cenocepacia. The samples were then stained with goat α-mouse IgG Alexa Fluor 488 (Abcam) for 1 h at RT, mounted with fluoroshield media with DAPI (Abcam), visualized via the Nikon Eclipse Ti at 40× magnification (Nikon Instrument Inc. Americas) and analyzed by ImageJ software (NIH). To enumerate bacterial burden, the animals were euthanized 18 or 72 hpi, bronchoalveolar lavage was collected with 1 ml of PBS plus 1 mM EDTA, an aliquot of BAL was serially diluted and plated on LB agar. […] Neither animals nor samples were excluded from evaluation in any study.
Data set [9] relates to UPEC biofilms. As to the kind of experiment: Disruption of 24 h UPEC biofilms in vitro (CLSM, COMSTAT average thickness). Particulars: 24 h UPEC biofilms, indicated concentrations of rHMGB1.
For data set [10], the system named is S. aureus biofilms. Briefly: Disruption of 24 h S. aureus biofilms in vitro (CLSM, COMSTAT average thickness). Particulars: 24 h biofilms, 16 h; non-bactericidal dose.
Data set [11] has as its system E. faecium biofilms. Briefly: Disruption of 24 h E. faecium biofilms in vitro (CLSM, COMSTAT average thickness). Particulars: 24 h biofilms, 1 h incubation; non-bactericidal dose.
In data set [12] the test system is UPEC biofilms. Particulars: 24 h UPEC biofilms, rHMGB1 200 nM, 16 h.
In data set [13] the test system is biofilms formed by UPEC, B. cenocepacia, NTHI, Enterobacter spp, S. aureus, K. pneumoniae, A. baumanii, P. aeruginosa, E. faecium. Briefly: Disruption of 24 h bacterial biofilms in vitro by HMGB1 isoforms (LIVE/DEAD stain, CLSM, COMSTAT average thickness). Particulars: 24 h biofilms of nine pathogens; 200 nM protein, 16 h (S. aureus 800 nM rHMGB1; E. faecium 800 nM, 1 h).

The values below come from patent US20230272054A1, “COMBINATION THERAPIES FOR THE TREATMENT AND PREVENTION OF BIOFILMS” (priority 2020, published 2023).

“Also recorded” adds a separate entry of the source.

B1: rHMGB1: recombinant HMGB1 derived from a human, expressed and purified in E. coli, SEQ ID NO: 51; comparator to mHMGB1 (protein, listed as Homo sapiens)
chain: MGKGDPKKPRGKMSSYAFFVQTCREEHKKKHPDASVNFSEFSKKCSERWKTMSAKEKGKFEDMAKADKARYEREMKTYIPPKGETKKKFKDPNAPKRPPSAFFLFCSEYRPKIKGEHPGLSIGDVAKKLGEMWNNTAADDKQPYEKKAAKLKEKYEKDIAAYRAKGKPDAAKKGVVKAEKSKKKKEEEEGEEDEEDEEEEEDEEDEDEEEDDDDE
Regarding B1, in [1], the “stabilization of HJ DNA at 55° C (melting temperature of HJ DNA)” value is “unstable at 55 °C” and the “HJ DNA-protein complex at room temperature (RT)” value is “stable at RT”. In addition, in data set [1] (listed as HMGB1), the “stabilization of HJ DNA at 55° C (melting temperature of HJ DNA)” value is “unable to efficiently stabilize the HJ DNA at 55 °C” and the “HJ DNA-protein complex at room temperature (RT)” value was “bound to HJ DNA to form stable complexes at RT”. For the same molecule, in [2], the “biofilm bacteria (FilmTracer FM 4-64)” value is on record as “substantial reduction in biofilm bacteria” and the “web-like eDNA lattice structure within biofilm” value is given as “disruption of the web-like structure; also recorded: notably disrupted”. The “induction of NET formation by neutrophils” value in [3] is “intertwined NETs specifically formed; also recorded: modest effect on induction of NETs”. Besides, the “infiltration of inflammatory cells into lungs (H&E)” value in data set [4] was “significant infiltration of inflammatory cells”. In addition, the “neutrophils in BAL (flow cytometry)” value in data set [5] is listed as “significantly greater number of neutrophils in BAL compared to the control”. Moreover, the “serum TNF-α (septic shock)” value in [6] is “did not induce septic shock; also recorded: did not induce detectable TNF-α”. Moreover, in data set [7], the “IL-1β in middle ear fluids” value is on record as “significantly elevated concentration; also recorded: statistically significant increase” and the “IL-17A in middle ear fluids” value is listed as “significantly elevated concentration; also recorded: statistically significant increase”. Further, in [8], the “B. cenocepacia stained within the lung tissue” value is on record as “significantly reduced bacterial load”. The “dose dependence of UPEC biofilm disruption” value in data set [9] is “dose-dependent disruption; also recorded: dose-dependent activity”. In addition, the “dose required to achieve a similar reduction in biofilm average thickness, S. aureus” value in data set [10] was 800 nM. Further, the “dose required to achieve a similar reduction in biofilm average thickness, E. faecium” value in data set [11] stood at 800 nM. Moreover, in data set [12], the “bacteria in the planktonic state” value is given as “statistically significant increase in the planktonic bacteria” and the biofilm-resident bacteria result was “statistically significant decrease in biofilm-resident bacteria”. The “biofilm average thickness compared to control” value in [13] is “significantly disrupted bacterial biofilms; also recorded: significant reduction in biofilm average thickness”.
